Assay results from patent US12214021B2 (CHINA AGRICULTURAL UNIVERSITY, priority 2018, dated 2025).
Marks after values point to notes of the source that are not given here.

Tests used:
[1] = system: osteoblasts; test: proliferation of osteoblasts promoted by LF (MTT method); assay type: cell-based; details: FIG. 4
Protocol: Based on transcriptome data, the inventors verified that LF can promote the high expression of VDR at both the gene and protein levels. In order to confirm the role of this pathway in the promotion of osteoblast proliferation and differentiation by LF, the inventors first designed a VDR siRNA to achieve the purpose of transiently silencing VDR genes. The principle of siRNA is the post-transcriptional gene silencing mechanism that blocks the expression of corresponding gene. 20 μM VDR siRNA was added to osteoblasts, the proliferation rate of osteoblasts promoted by LF was detected by MTT method, and the ALP activity of osteoblasts promoted by LF was detected by enzyme-linked immunoassay.
The inventors first confirmed that LF promotes the proliferation and differentiation of osteoblasts through the regulation of the VDR pathway using the osteoblast model. Since the osteogenic effect of VDR is mainly achieved by vitamin D, in order to simulate the normal physiological environment, the inventors treated osteoblasts with both 1 nM of […] (the active form of vitamin D) and LF, and then studied the proliferation and differentiation of osteoblasts.

[2] = blood biochemical markers in mice after oral LF; assay type: in vivo; details: for 25-OH VD3 / Ca / P / PTH: blood, Mean ± SD, n = 8
Excerpt: Generally, the content of VD is reflected by measuring the content of 25-OH D3 in the serum. […] The contents of calcium and phosphorus in serum reflect the degree of absorption of calcium and phosphorus in the small intestine. […] However, oral administration of LF still has no effect on serum calcium and phosphorus content.

[3] = contents of calcium and phosphorus in urine of mice; assay type: in vivo; details: LF1000 group
Protocol: In order to reflect the reabsorption of calcium and phosphorus by the kidney, the contents of calcium and phosphorus in urine were measured. In the VD-deficient groups, the calcium content in the LF1000 group is reduced by 67% compared with the control group, and the phosphorus content in the LF1000 group is reduced by 72% compared with the control group; in the VD-normal groups, the calcium content in the LF1000 group is reduced by 80% compared with the control group, and the phosphorus content in the LF1000 group is reduced by 78% compared with the control group.

[4] = system: VDR; test: effect of inhibition of endocytosis (hypertonic, 4° C.) on VDR expression promoted by LF in MC3T3-E1 cells; assay type: cell-based; details: under the condition of inhibiting endocytosis (hypertonic, 4° C.), FIG. 18
Protocol: Studies have shown that LF can directly enter the cell and bind with DNA to regulate cell gene expression. Therefore, in order to study the effect of endocytosis, cells were stimulated with LF under culture conditions that inhibit endocytosis, and the inhibitory effect on the endocytosis of LF were detected firstly. […] Then, the promotion effect of LF on VDR was measured to analyze whether the inhibition of endocytosis affected the expression of VDR promoted by LF to determine the site of action of LF.

[5] = bone mineral density of the femur of mice; assay type: in vivo
Excerpt: The factors affecting bone mineral density mainly include bone mass factors and bone quality factors. Decreased bone mass is an important factor in the occurrence of common bone diseases, and bone mineral density (BMD) is an important indicator for quantifying bone mass in bone mineral metabolism. The BMD index is of great significance for the prediction of fracture risk, the early diagnosis of osteoporosis and the evaluation of intervention measures.

[6] = system: VDR; test: expression of VDR gene (mRNA) in MC3T3-E1 cells under LF stimulation; assay type: cell-based; details: FIG. 1
[7] = system: VDR; test: Western blot detection of VDR expression in kidney, colon and bone tissue; assay type: in vivo, mice
Excerpt: The inventors further verified the expression of VDR in three major tissues, kidney, colon and bone using the Western blot method by extracting the tissue protein.

[8] = system: VDR; test: immunohistochemistry of VDR expression in mouse kidney, colon and bone tissue; assay type: in vivo, mice; details: for VDR-positive cell rate in the kidney: FIG. 9; for VDR positive cell rate in the colon (positive cells to total cells in each crypt): FIG. 11
Excerpt: The immunohistochemical technique was used to detect the expression of VDR in kidney tissues.

[9] = micro-CT microstructure of trabecular bone of distal femur of mice; assay type: in vivo; details: for BV/TV / TPF / Tb · N / Tb · Sp / Tb · Th: femoral ROI, Mean ± SD, n = 8
Excerpt: According to the micro-building theory, the strength of the trabecular bone depends not only on the BMD, but also on its three-dimensional structure. In pathology, bone damage should include both “quantitative” change and “qualitative” changes. Quantitative change is the decline of BMD, while qualitative change is the change of the microstructure of trabecular bone, such as trabecular number and thickness, trabecular connection, and so on. Trabecular bone plays a major role in the microstructure. Increasing the cross structure of each trabecular bone can increase the supporting strength of the bone, but has basically no effect on bone mineral density.
The distal femur is considered a sensitive site for detecting bone health due to high cancellous bone content and rapid bone turnover. Therefore, the inventors analyzed the microstructure of trabecular bone of the distal femur using micro-CT. […] Therefore, this study mainly analyzed the microstructure of the cancellous trabecular bone of the femur in each group. The three-dimensional structure image of the trabecular bone of the ROI region of the mouse femur obtained by micro-CT reconstruction is shown in FIG. 7A and the longitudinal section is shown in FIG. 7B.
In order to quantitatively analyze the structure of the trabecular bone, the spatial structure parameters of the trabecular bone of the ROI region shown in FIG. 7 were also measured. Trabecular bone structure parameters include the followings: Bone Volume Fraction (BV/TV), which is the ratio of the total volume of voxels representing the bone structure in the ROI to the total volume of all voxels in the region, and when the bone is unhealthy, the trabecular bone is lost and the BV/TV value decreases; trabecular thickness (Tb·Th), which is the average thickness of trabecular bone, and when the bone is unhealthy, the value of Tb·Th decreases, and in porous materials, Tb·Th can be understood as thickness of the pore wall; trabecular number (Tb·N), which is the number of intersections of bone tissue and non-bone tissue within a given length, and when the bone is unhealthy, the value of Tb·N decreases; trabecular separation (Tb·Sp), which is the average width of the medullary cavity between the trabecular bones. An increase in Tb·Sp indicates an increased bone resorption and possible bone loss. Tb. Sp can be understood as porosity. The trabecular pattern factor is used to evaluate the morphology of the trabecular bone. This parameter is determined by the surface area and volume of the trabecular bone, and is a parameter obtained through 3D simulation. The smaller the TPF value, the better the connectivity between trabecular bones. BV/TV, Tb·Th, Tb·N, and Tb·Sp are parameters that can be provided by both micro-CT and bone tissue morphometry. The TPF value is a parameter based on the analysis of the three-dimensional structure of the trabecular bone, can be obtained from micro-CT analysis, but cannot be provided by the traditional two-dimensional method.

[10] = system: VDR; test: VDR protein expression in cytoplasm and nucleus of osteoblasts after LF for different times; assay type: cell-based
Protocol: After verifying that LF promotes high expression of VDR at the transcription level, it is further verified at the protein level. VDR exists in the cytoplasm and nucleus, but plays a major role in the nucleus. The inventors stimulated osteoblasts for different times using LF to measure the expression of VDR in the cytoplasm and nucleus. […] In the nucleus, VDR expression began to increase at 1 hour after LF treatment, and reaches the maximum at 2-6 h.

[11] = VD-deficient LF100-administered group as printed (second such column, c3)
[12] = VD-normal LF100-administered group as printed (second such column, c6)
[13] = VD-normal oral-administered LF group
[14] = osteoblasts, after LF treatment

B1: lactoferrin (protein, UniProt P02788 20-710, looked up)
Lactotransferrin: GRRRSVQWCAVSQPEATKCFQWQRNMRKVRGPPVSCIKRDSPIQCIQAIAENRADAVTLDGGFIYEAGLAPYKLRPVAAEVYGTERQPRTHYYAVAVVKKGGSFQLNELQGLKSCHTGLRRTAGWNVPIGTLRPFLNWTGPPEPIEAAVARFFSASCVPGADKGQFPNLCRLCAGTGENKCAFSSQEPYFSYSGAFKCLRDGAGDVAFIRESTVFEDLSDEAERDEYELLCPDNTRKPVDKFKDCHLARVPSHAVVARSVNGKEDAIWNLLRQAQEKFGKDKSPKFQLFGSPSGQKDLLFKDSAIGFSRVPPRIDSGLYLGSGYFTAIQNLRKSEEEVAARRARVVWCAVGEQELRKCNQWSGLSEGSVTCSSASTTEDCIALVLKGEADAMSLDGGYVYTAGKCGLVPVLAENYKSQQSSDPDPNCVDRPVEGYLAVAVVRRSDTSLTWNSVKGKKSCHTAVDRTAGWNIPMGLLFNQTGSCKFDEYFSQSCAPGSDPRSNLCALCIGDEQGENKCVPNSNERYYGYTGAFRCLAENAGDVAFVKDVTVLQNTDGNNNEAWAKDLKLADFALLCLDGKRKPVTEARSCHLAMAPNHAVVSRMDKVERLKQVLLHQQAKFGRNGSDCPDKFCLFQSETKNLLFNDNTECLARLHGKTTYEKYLGPQYVAGITNLKKCSTSPLLEACEFLRK
notes: natural glycoprotein with a molecular weight of 78 KDa in milk
[1]
  effect on promoting the proliferation and differentiation of osteoblasts, compared with 1.25(OH)2D3: stronger effect
[2]; [11]
  25-OH VD3: 14.8 ± 2.39^a ng/mL
  Ca: 1.6 ± 0.13^a mmol/L
  P: 2.33 ± 0.42^a mmol/L
  PTH: 93.69 ± 34.61^b pg/mL
[2]; [12]
  25-OH VD3: 27.61 ± 2.93^b ng/mL
  Ca: 2.25 ± 0.17^b mmol/L
  P: 2.26 ± 0.33^a mmol/L
  PTH: 91.91 ± 13.10^b pg/mL
[2]; oral 1000 mg/kg BW LF in the VD-deficient group
  effect on PTH content: reduce the PTH content
[2]; oral administration of LF
  effect on serum calcium and phosphorus content: no effect
[2]; oral administration of LF vs corresponding control groups
  effect on the 25-OH D3 content in serum: no significant effect
[3]; VD-deficient groups
  calcium content in urine, reduction compared with the control group: 67%
  phosphorus content in urine, reduction compared with the control group: 72%
[3]; VD-normal groups
  calcium content in urine, reduction compared with the control group: 80%
  phosphorus content in urine, reduction compared with the control group: 78%
[4]
  promotion effect of LF on the expression of VDR in the cytoplasm and nucleus: significantly inhibited
[5]; VD-deficient LF100-administered group, 5 months oral, p<0.05
  bone mineral density of the femur, increase compared with the VD-deficient control group: 5.67%
[5]; oral administration, VD normal
  effect on bone mineral density when VD is normal: further promote bone mineral density
[6]
  VDR expression at mRNA levels: up to 30 fold
[7]; FIG. 15
  VDR expression in the colon: effectively promote the expression of VDR
[7]; VD deficiency, LF1000-administered group, FIG. 16
  VDR expression in the femur, higher than that of the control group: 3 times
[7]; VD deficiency, oral lactoferrin, FIG. 14
  VDR expression in the kidney: effectively promote the expression of VDR
[7]; VD-normal oral-administered 100 mg LF/kg BW group, FIG. 16
  VDR expression in the femur, higher than that of the VD normal control group: 2.35 times
[8]; VD-deficient LF100-administered group
  VDR-positive cell rate in the kidney: 13.8%
[8]; VD-deficient LF100-administered group, FIG. 13
  VDR positive cell rate in the femur: 75%
[8]; VD-deficient LF1000-administered group
  VDR-positive cell rate in the kidney: 17%
[8]; VD-deficient LF-administered group
  VDR positive cell rate in the colon (positive cells to total cells in each crypt): more than 70%
[8]; VD-normal LF100-administered group
  VDR-positive cell rate in the kidney: 16.3%
[8]; VD-normal LF1000-administered group
  VDR-positive cell rate in the kidney: 16.5%
[8]; [13]
  VDR positive cell rate in the colon (positive cells to total cells in each crypt): ~80%
[9]; VD-deficient LF-administered group, FIG. 7
  trabecular bones and cavity in longitudinal section compared with the control group: obviously more trabecular bones and smaller cavity
[9]; VD-deficient groups, low-dose LF group
  BV/TV of the trabecular bone compared with the VD-deficient control group and the VD-normal control group: significantly higher
[9]; [13]
  trabecular structure parameters compared with the control group: comparable to the control group, except for Tb·Th value
[9]; [11]
  BV/TV: 0.252 ± 0.029^b %
  TPF: 7.290 ± 2.128^ab mm^−1
  Tb · N: 5.374 ± 0.501^ab mm^−1
  Tb · Sp: 0.136 ± 0.017^b mm
  Tb · Th: 0.054 ± 0.005^ab mm
[9]; [12]
  BV/TV: 0.28 ± 0.017^ab %
  TPF: 5.599 ± 0.397^b mm^−1
  Tb · N: 6.029 ± 0.586^a mm^−1
  Tb · Sp: 0.141 ± 0.020^b mm
  Tb · Th: 0.057 ± 0.004^ab mm
[10]; osteoblasts treated with LF
  time after which VDR expression in the cytoplasm began to normalize: 12 h
  time at which VDR expression in the cytoplasm reaches the maximum: 4 h
[10]; osteoblasts treated with LF for two hours
  VDR expression in the cytoplasm: significantly increased
[10]; [14]
  time at which VDR expression in the nucleus began to increase: 1 h
  time at which VDR expression in the nucleus reaches the maximum: 2 to 6 h
